According to PMC5443773 (Scientific Reports, 2017):

Biological target: the molecule itself
Assay: crystal structure

B1: El Tor cholera toxin B-pentamer (natural protein)
chain: TPQNITDLCAEYHNTQIYTLNDKIFSYTESLAGKREMAIITFKNGAIFQVEVPGSQHIDSQKKAIERMKDTLRIAYLTEAKVEKLCVWNNKTPHAIAAISMAN
stoichiometry N: 5
